Experimental data as given in patent US20030170653A1, “Biological method for the production of tuliposide A and its intermediates” (priority 2001, published 2003).

B1: GHBD2: γ-hydroxybutyrate dehydrogenase homolog from Arabidopsis (SEQ ID NO: 16), expressed from pTrcAds (protein)
chain: MEVGFLGLGIMGKAMSMNLLKNGFKVTVWNRTLSKCDELVEHGASVCESPAEVIKKCKYTIAMLSDPCAALSVVFDKGGVLEQICEGKGYIDMSTVDAETSLKINEAITGKGGRFVEGPVSGSKKPAEDGQLIILAAGDKALFEESIPAFDVLGKRSFYLGQVGNGAKMKLIVNMIMGSMMNAFSEGLVLADKSGLSSDTLLDILDLGAMTNPMFKGKGPSMNKSSYPPAFPLKHQQKDMRLALALGDENAVSMPVAAAANEAFKKARSLGLGDLDFSAVIEAVKFSRE
modifications: Arabidopsis
B2: GHBD1: γ-hydroxybutyrate dehydrogenase homolog from tulip pistil (SEQ ID NO: 14), expressed from pTrcEtp (protein)
chain: MEVGFLGLGIMGKAMAVNLLRSGFRVTVWNRTLSKCNELLEQGASVGETPAAVIKKCKYTIAMLSDPSAALSVVFDKDGVLEHMSSGKGYIDMSTVDAVTSSKISEAITQKGGHFLEAPVSGSKKPAEDGQLVILAAGEKALYEEIIPAFEVLGKKSFFLGQVGNGANMKLIVNMIMGSMMNALSEGLSLAGKSGLEQKTLLDVLDLGAIANPMFKLKGPAMIQNNHPPAFPLKHQQKDMRLALALGDENAVSMPVAAAANEAFKKARSLGLGDLDFSAVYEVLKYGDAS
modifications: tulip pistil

Key:
Format in all cases: biochemical
[1] = Dehydrogenase assay of protein extracts, oxidation of NADPH or NADH at 340 nm; conditions: 1.5 mM succinic semialdehyde; for activity with NADH as electron donator: 0.5 mM NADH; for specific activity: 0.5 mM NADPH, pH 7.2, room temperature, protein extract
Method: Plasmids pTrcEtp and pTrcAds were retransformed into TOP10 cells and freshly plated transformants were used in gene expression studies. In addition, the pTrcHis-TOPO/lacZ plasmid (Invitrogen) was also transformed into TOP10 cells to be used as a negative control in expression experiments. Freshly transformed Escherichia coli colonies containing pTrcEtp, pTrcAds or pTrcHis-TOPO/lacZ were inoculated into 2 mL of LB liquid media containing ampicillin (100 μg/mL) and grown at 37° C. for 5 h. These were then transferred to 100 mL of LB liquid media containing ampicillin (100 μg/mL) and cultures were grown overnight at room temperature. The next morning, the cultures were diluted to an OD600 nm of 0.2 and were grown at room temperature until the OD600 nm reached 0.8. IPTG was added to the cultures to a concentration of 0.4 mM and cultures were grown for an additional 3 h at room temperature. The cultures were then centrifuged at 10,000× g for 15 min, the supernatant was decanted and the resulting pellet was resuspended in 2 mL of breakage buffer (100 mM HEPES, pH 7.2; 10 % glycerol; 1 mM AEBSF; 1 μg/mL leupeptin; and 1 μg/mL pepstatin). Cells were broken by passage two times through a french press and the resulting extract was centrifuged at 16,000× g for 15 min at 4° C. The supernatant was carefully removed (soluble protein) and the pellet was resuspended in 1 mL of breakage buffer. An additional 1 mL of breakage buffer containing 12 mM CHAPS was added and after mixing and incubation on ice for 30 min, the mixture was centrifuged at 16,000× g for 15 min at 4° C. The supernatant was carefully removed (CHAPS soluble protein) and the pellet was resuspended in 2 mL of breakage buffer (insoluble protein).
Protein extracts (soluble, CHAPS soluble and insoluble) from TOP10 cells containing pTrcEtp, pTrcAds and pTrcHis-TOPO/lacZ were assayed by measuring the oxidation of NADPH or NADH using the decrease in absorbance at 340 nm (Hearl et al., J. Biol. Chem. 260:16361-16366 (1985)). Assays contained 100 mM potassium phosphate (pH 7.2), 10% glycerol, 1.5 mM succinic semialdehyde, 0.5 mM of either NADPH or NADH and from 10 μg-400 μg of enzyme extract in a total volume of 1 mL. Assays were initiated by addition of succinic semialdehyde and were measured at room temperature. Protein concentrations of each extract were determined using the BioRad protein assay (Biorad). Protein extracts were also analyzed by SDS-PAGE.

[2] = Kinetic analysis of purified dehydrogenases with succinatesemialdehyde and NADPH; conditions: purified enzyme 3 μg/mL, succinatesemialdehyde 0.1-30 mM, 0.5 mM NADPH, pH 7.0
Method: Cultures were grown at 37° C. for 5 h and then were transferred to 100 mL of LB liquid media containing ampicillin (100 μg/mL). These were grown overnight at room temperature. The next morning, 50 mL of each culture was transferred to 1 L of LB and grown at room temperature until the OD600 nm reached 0.8. IPTG was added to the cultures to a concentration of 0.4 mM and cultures were grown for an additional 4 h at room temperature. The cultures were then centrifuged at 10,000× g for 15 min, the supernatant was decanted and the resulting pellet was resuspended in 10 mL of breakage buffer (100 mM HEPES, pH 7.2; 10 % glycerol; 1 mM AEBSF; 1 μg/mL leupeptin; and 1 μg/mL pepstatin). Cells were broken by passage two times through a french press and the resulting extract was centrifuged at 16,000× g for 15 min at 4° C. The supernatant was carefully removed and 40 mL of Ni loading buffer (20 mM sodium phosphate, pH 7.5; 10 mM immidazole; 500 mM sodium chloride) was added. Proteins were loaded onto a 5 mL Hitrap chelating column (Pharmacia, Inc.) pre-equilibrated with 100 mM nickel sulfate and washed with 20 mL of loading buffer. Another wash with 50 mL of loading buffer containing 60 mM immidazole was carried out and bound proteins were eluted with a gradient of loading buffer containing immidazole from 60 mM to 1000 mM. All fractions were analyzed by SDS-PAGE.
(§1) All proteins eluted at around 120 mM immidazole. Purified proteins from pTrcAds and pTrcEtp were assayed with succinatesemialdehyde and NADPH as described above. […] Assays contained 0.5 mM NADPH, 100 mM sodium phosphate (pH 7.0), 1 mg/mL BSA, succinatesemialdehyde and enzyme in 200 μL total. Assays were carried out at various concentrations of succinatesemialdehyde (0.1-30 mM) using 3 μg/mL of each enzyme. Under these conditions, the kinetic parameters for the Arabidopsis dehydrogenase (kcat=1290 min-1, KM=4 mM) and the Tulip dehydrogenase (kcat=1200 min^−1, KM=3 mM) were determined. The ablility of each enzyme to reduce to α-methylenesuccinatesemialdehyde to α-methylene-γ-hydroxybutyrate was assessed in a coupled assay. The GABT protein from E. coli, purified as described above, was used to generate α-methylenesuccinatesemialdehyde from α-methylene-γ-aminobutyrate. This assay was carried out in the presence or absence of the Arabidopsis and Tulip dehydrogenase. […] To this was added either the Arabidopsis or Tulip protein (20 μg/mL and 3 μg/mL) or no additional protein as negative control. Assays were incubated at room temperature for 30 min and the reaction was stopped with 10% HCl. Acidification of the assay also served to partially convert α-methylene-γ-hydroxybutyrate to α-methylene-γ-butyrolactone (MBL). […] Compounds were detected with a Waters 9600 PDA detector. […]

[3] = Coupled assay with purified GABT: reduction of α-methylenesuccinatesemialdehyde, MBL detected by HPLC; conditions: coupled with 100 μg GABT, 1 mM α-methylene-γ-aminobutyrate, 0.5 mM NADPH, room temperature, 30 min
Method: as §1

Molecule	activity with NADH as electron donator [1]	specific activity [1]	Km [2]	kcat [2]	conversion of α-methylenesuccinatesemialdehyde [3]
B1	no activity	0.097 μmol/min^−1/mg^−1	4 mM	21.5 s⁻¹	could convert
B2	no activity	0.14 μmol/min^−1/mg^−1	3 mM	20 s⁻¹	could convert
